What all share (assay): cell-based or functional assay
The target of test [1] is HIV-1 MGRM-AG-001 Env (pseudovirus) (HIV-1).
The target in test [2] is HIV-1 Env of isolate MGRM-A-010 (clade A pseudovirus) (HIV-1).
Test [3] concerns the target HIV-1 envelope glycoprotein (Env) of isolate MGRM-C-006 (HIV-1).
Test [4] deals with HIV-1 Env of isolate SC422661.8 (Acute), clade B (HIV-1).
The target of test [5] is HIV-1 IAVI-C18 envelope (Env) on pseudovirus (HIV-1).
The target in test [6] is HIV-1 Env of isolate 94UG103 (clade A pseudovirus) (HIV-1).
For test [7], the target named is aMLV envelope on pseudovirus (negative control).
Test [8] has as its target HIV-1 Env of pseudovirus MGRM-F1-006 (clade F) (HIV-1).
Test [9] has as its target HIV-1 Env of isolate MGRM-D-002 (clade D pseudovirus) (HIV-1).
Test [10] concerns the target HIV-1 Env of isolate 92UG024 (clade D pseudovirus) (HIV-1).
In test [11] the target is HIV-1 Env of isolate 92RW026 (clade A pseudovirus) (HIV-1).
Test [12] concerns the target HIV-1 Env of isolate MGRM-A-004 (clade A pseudovirus) (HIV-1).
For test [13], the target named is HIV-1 MGRM-AG-005 Env (pseudovirus) (HIV-1).
For test [14], the target named is HIV-1 envelope glycoprotein (Env) of isolate MGRM-C-005 (HIV-1).
Test [15] has as its target HIV-1 envelope glycoprotein (Env) of isolate 93WR029, subtype A (HIV-1).
Test [16] deals with HIV-1 envelope glycoprotein (Env) of isolate MGRM-Chronic-B-023, on pseudovirus (HIV-1).
Test [17] deals with HIV-1 CMU02 Env (HIV-1).
Test [18] has as its target HIV-1 envelope glycoprotein (Env) of isolate MGRM-Chronic-B-024, on pseudovirus (HIV-1).
For test [19], the target named is HIV-1 Env of isolate MGRM-F1-020 (pseudovirus) (HIV-1).
Test [20] has as its target HIV-1 envelope glycoprotein (Env) of isolate TRO.11, on pseudovirus (HIV-1).
In test [21] the target is HIV-1 Env of isolate MGRM-F1-015 (pseudovirus) (HIV-1).
In test [22] the target is HIV-1 envelope glycoprotein (Env) of isolate MG RM-A-013, subtype A (HIV-1).
In test [23] the target is aMLV envelope.
In test [24] the target is HIV-1 Env of isolate MGRM-F1-022 (pseudovirus) (HIV-1).
Test [25] deals with HIV-1 envelope glycoprotein (Env) of isolate 6535.3, on pseudovirus (HIV-1).
In test [26] the target is HIV-1 Env of isolate MGRM-AG-009 (pseudovirus) (HIV-1).
For test [27], the target named is HIV-1 Env of isolate MGRM-G-001 (subtype G) (HIV-1).
For test [28], the target named is HIV-1 JR-CSF Env R419A (HIV-1 (isolate JR-CSF)) (UniProt P20871).

Some results are limits rather than exact numbers.

Broadly, the IC50 is the concentration needed to halve the response being measured. Low readings indicate higher potency, high ones lower potency.

1443_C16 (PG16) (TCN-116) (antibody), sequence (VH): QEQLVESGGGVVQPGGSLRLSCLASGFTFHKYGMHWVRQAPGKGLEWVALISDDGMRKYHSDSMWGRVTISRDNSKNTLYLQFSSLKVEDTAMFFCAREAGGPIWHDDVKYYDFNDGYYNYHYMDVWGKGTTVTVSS
1443_C16 (PG16) (TCN-116) (antibody), sequence (VL): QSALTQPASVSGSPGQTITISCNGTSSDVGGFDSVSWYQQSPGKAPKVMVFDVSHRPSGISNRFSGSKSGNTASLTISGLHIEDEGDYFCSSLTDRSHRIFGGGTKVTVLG

For 2G12 (antibody), the IC50 (µg/ml), pseudovirus neutralization in [1] is 0.69 µg/mL; in [2] it was 17 µg/mL; in test [3], above 50 µg/mL; in [4], 0.84 µg/mL; in test [6] it was 48.1 µg/mL; in test [11] it was 17.2 µg/mL. For the same substance, the IC50 (µg/ml), pseudovirus neutralization in [12], in test [13] and in test [14] was above 50 µg/mL in each case. For the same substance, the neutralization IC50 in [5] and in [7] was above 50 µg/mL in each case. In test [8], the IC50 is above 50 µg/mL. Further, the IC50, pseudovirus neutralization was above 50 µg/mL in test [9] and 0.42 µg/mL in test [10].
Take b12 (antibody): the IC50 (µg/ml), pseudovirus neutralization in test [1] was 11.9 µg/mL; in [2], above 50 µg/mL; in [3], above 50 µg/mL; in [4] it was 6.11 µg/mL; in test [6], 6.92 µg/mL; in test [11] it was above 50 µg/mL. The IC50 (µg/ml), pseudovirus neutralization was above 50 µg/mL in [12], above 50 µg/mL in test [13] and 2.66 µg/mL in test [14]. The neutralization IC50 in [5] and in test [7] was above 50 µg/mL each time. In test [8], this substance returned an IC50 above 50 µg/mL. Also, the figures for the IC50, pseudovirus neutralization in test [9] and in test [10] were above 50 µg/mL and 45.6 µg/mL, respectively.
Take 4838_L06 (PGT-121) (antibody): the IC50, pseudovirus neutralization is above 50 µg/mL in test [15]; 0.005 µg/mL in [16]; above 10 µg/mL in [17]; 0.195 µg/mL in [18]; 0.008 µg/mL in test [20]; 0.387 µg/mL in test [22]. For the same substance, the values for the IC50, pseudovirus neutralization in [23] and in test [25] were above 10 µg/mL and 0.005 µg/mL, respectively. The IC50 (µg/mL), pseudovirus neutralization came out at 0.167 µg/mL in test [19], 28.4 µg/mL in test [21] and 0.104 µg/mL in [24].
Regarding 1495_C14 (PGC14) (antibody), the IC50 (µg/ml), pseudovirus neutralization in test [1], in [2], in test [3], in test [4], in [6] and in test [11] was above 50 µg/mL throughout. The IC50 (µg/ml), pseudovirus neutralization in test [12], in [13] and in [14] was above 50 µg/mL in each case. Moreover, the neutralization IC50 in [5] and in [7] was above 50 µg/mL in each case. In test [8], this substance registered an IC50 above 50 µg/mL. In addition, the figures for the IC50, pseudovirus neutralization in [9] and in [10] were 29 µg/mL and above 50 µg/mL, respectively.
For the substance 4E10 (antibody), the IC50 (µg/ml), pseudovirus neutralization in test [1] is 1.12 µg/mL; in test [2], 14.4 µg/mL; in test [3] it was 4.94 µg/mL; in [4] it was 6.35 µg/mL; in [6], 4.97 µg/mL; in test [11] it was 12.9 µg/mL. The results for the IC50 (µg/ml), pseudovirus neutralization in test [12], in [13] and in test [14] were 3.14 µg/mL, 2.13 µg/mL and 16.4 µg/mL, respectively. Further, the neutralization IC50 in test [5] and in [7] was above 50 µg/mL throughout. In test [8], the IC50 was 1.01 µg/mL. The IC50, pseudovirus neutralization amounted to 9.44 µg/mL in test [9] and 2.17 µg/mL in test [10].
For the substance 1443_C16 (PG16) (TCN-116) (antibody), the IC50 (µg/ml), pseudovirus neutralization in test [1] was 0.03 µg/mL; in test [2] it was 0.004 µg/mL; in [3], 2.62 µg/mL; in [4], 1.13 µg/mL; in test [6], 0.04 µg/mL; in test [11], 0.03 µg/mL. Moreover, the IC50 (µg/ml), pseudovirus neutralization was 0.04 µg/mL in test [12], above 50 µg/mL in [13] and 2.55 µg/mL in test [14]. The results for the neutralization IC50 in test [5] and in [7] were 0.0067 µg/mL and above 50 µg/mL, respectively. In addition, the IC50 in test [8] came to 0.27 µg/mL. For the same substance, the IC50, pseudovirus neutralization in test [9] was 0.01 µg/mL; in [10], 24 µg/mL.
PGV04 (antibody): the IC50 (µg/mL), pseudovirus neutralization in test [26] is 0.148 µg/mL; in test [27] it was above 50 µg/mL.
Turning to 4877_D15 (PGT-122) (antibody), the IC50, pseudovirus neutralization in test [15] is above 50 µg/mL; in test [16], 0.01 µg/mL; in [17], above 10 µg/mL; in test [18], 2.31 µg/mL; in test [20] it was 0.011 µg/mL; in [22] it was 2.47 µg/mL. Further, the values for the IC50, pseudovirus neutralization in test [23] and in test [25] were above 10 µg/mL and 0.006 µg/mL, respectively. The IC50 (µg/mL), pseudovirus neutralization in [19] was determined as 0.321 µg/mL; in [26] it was 0.128 µg/mL; in test [21], 31.4 µg/mL; in [24] it was 0.277 µg/mL.
As to 2F5 (antibody), the IC50 (µg/ml), pseudovirus neutralization was 0.75 µg/mL in test [1]; 20.8 µg/mL in [2]; above 50 µg/mL in test [3]; above 50 µg/mL in [4]; 1.92 µg/mL in test [6]; 8.63 µg/mL in test [11]. The figures for the IC50 (µg/ml), pseudovirus neutralization in test [12], in test [13] and in [14] were 7.49 µg/mL, above 50 µg/mL and above 50 µg/mL, respectively. Also, the neutralization IC50 in [5] and in test [7] was above 50 µg/mL in each case. This substance returned an IC50 in [8] of 1.1 µg/mL. The IC50, pseudovirus neutralization turned out to be 24.6 µg/mL in test [9] and 0.95 µg/mL in [10].
Take 5141_B17 (PGT-126) (antibody): the IC50, pseudovirus neutralization in [15] is above 50 µg/mL; in [16] it was above 50 µg/mL; in test [17], above 10 µg/mL; in test [18], above 50 µg/mL; in test [20], 0.041 µg/mL; in [22] it was 0.006 µg/mL. Further, the IC50, pseudovirus neutralization in test [23] is above 10 µg/mL; in test [25] it was 0.022 µg/mL. This substance also registered a Fold IC50 increase relative to wild-type (pseudovirus neutralization) in [28] of 1.2 fold. Also, the IC50 (µg/mL), pseudovirus neutralization was above 50 µg/mL in [19], 0.03 µg/mL in test [26], above 50 µg/mL in test [21] and above 50 µg/mL in [24].
Consider 1496_C09 (PG9) (TCN-109) (antibody), for which the IC50 (µg/ml), pseudovirus neutralization in test [1] is 8.83 µg/mL; in [3] it was 0.23 µg/mL; in [4] it was 0.79 µg/mL; in test [6] it was 0.24 µg/mL; in [11] it was 0.27 µg/mL; in [13], 29.7 µg/mL. Moreover, the IC50 (µg/ml), pseudovirus neutralization in [14] stood at 2.98 µg/mL. The neutralization IC50 in test [5] came to 0.0535 µg/mL. The IC50 in test [8] came out at 1.45 µg/mL. Besides, the IC50, pseudovirus neutralization in [9] was 0.027 µg/mL; in test [10], 1.91 µg/mL. In [27], this substance returned an IC50 (µg/mL), pseudovirus neutralization of 0.166 µg/mL.

Values taken from patent US20240132578A1.
